The results in this text go back to patent US6897054 (JAPAN SCIENCE AND TECHNOLOGY AGENCY, dated 2005).

For the assay, the target named is T1, huCdc7 fused to DNA-binding domain of Gal4 (human, UniProt P04386 1-147; O00311 1-574, limits assumed).
T1 construct: Yeast two-hybrid bait in strain CG1945; also called huCdc7 (two-hybrid bait)
Description: yeast two-hybrid assay, lacZ activity. As for the experimental part:
In order to determine the region on H37 protein essential for binding with huCdc7, a series of deletion derivatives of H37 at N- and C-terminals as shown in FIG. 7 was prepared, each of them was expressed in yeast as a fusion protein with Gal4 activated domain and an interaction of each deletion derivative with huCdc7 was investigated by means of a two-hybrid assay. […] However, when 50 amino acids at N-terminal were further deleted whereupon the H37 motif C was deleted, an interaction with huCdc7 was completely lost (ΔN3).

B1: H37 deletion derivative ΔN3 fused to Gal4 activation domain (other, not shown: small tags and cut ends)
chain: LETHLLSEQHRNFAQSNQYQVVDDIVSKLVFDFVEYEKDTPKKKRIKYSVGSLSPVSASVLKKTEQKEKVELQHISQKDCQEDDTTVKEQNFLYKETQETEKKLLFISEPIPHPSNELRGLNEKMSNKCSMLSTAEDDIRQNFTQLPLHKNKQECILDISEHTLSENDLEELRVDHYKCNIQASVHVSDFSTDNSGSQPKQKSDTVLFPAKDLKEKDLHSIFTHDSGLITINSSQEHLTVQAKAPFHTPPEEPNECDFKNMDSLPSGKIHRKVKIILGRNRKENLEPNAEFDKRTEFITQEENRICSSPVQSLLDLFQTSEEKSEFLGFTSYTEKSGICNVLDIWEEENSDNLLTAFFSSPSTSTFTGF
notes: The range is worked out from the printed counts of deleted residues and a length of 674
Take B1: the binding result is recorded as “no binding”.

B2: H37 deletion derivative ΔB fused to Gal4 activation domain (other, not shown: small tags and cut ends)
chain: MNSGAMRIHSKGHFQGGIQVKNEKNRPSLKSLKTDNRPEKSKCKPLWGKVFYLDLPSVTISEKLQKDIKDLGGRVEEFLSKDISYLISNKKEAKFAQTLGRISPVPSPESAYTAETTSPHPSHDGSSFKSPDTVCLSRGKLLVEKAIKDHDFIPSNSILSNALSWGVKILHIDDIRYYIEQKKKELYLLKKSSTSVRDGGKRVGSGAQKTRTGRLKKPFVKVEDMSQLYRPFYLQLTNMPFINYSIQKPCSPFDVDKPSSMQKQTQVKLRIQTDGDKYGGTSIQLQLKEKKKKGYCECCLQKYED
notes: The range is worked out from the printed count of deleted residues and a length of 674; also called deltaB
In the case of B2, the “interaction relative to the full-length clone” value is roughly 10%.

B3: H37 deletion derivative ΔP1 fused to Gal4 activation domain (other, not shown: small tags and cut ends)
chain: MNSGAMRIHSKGHFQGGIQVKNEKNRPSLKSLKTDNRPEKSKCKPLWGKVFYLDLPSVTISEKLQKDIKDLGGRVEEFLSKDISYLISNKKEAKFAQTLGRISPVPSPESAYTAETTSPHPSHDGSSFKSPDTVCLSRGKLLVEKAIKDHDFIPSNSILSNALSWGVKILHIDDIRYYIEQKKKELYLLKKSSTSVRDGGKRVGSGAQKTRTGRLKKPFVKVEDMSQLYRPFYLQ
B3: the binding result is “no binding”.
